System: His-Mwt (matrix protein M) (Human respiratory syncytial virus (A2?))
Assay: EMSA
Conditions: 10 mM HEPES (pH not stated), 0.25 mM DTT, 50 mM KCl, 10 uL, 15 min at room temperature; 0.8% agarose gel, 40 V, 8 h, 4 C

Substance: control luciferase RNA (T7 transcript)
- K half: 2100 nM
